According to patent US20210284734A1 (SYMPHOGEN A S, published 2021):

B1: 12819.17149 Fab (Fab, V domains shown)
VH: EVQLLESGGGLVQPGGSLRLSCAASGFTFTRYDMVWVRQAPGKGLEWVAGIGDSNKMTRYAPAVKGRATISRDNSKNTLYLQMNSLRAEDTAVYYCAKGSCIACWDEAGRIDAWGQGTLVTVSS
VL: SYELTQDPAVSVALGQTVRITCSGGGSYDGSSYYGWYQQKPGQAPVTVIYNNNNRPSDIPDRFSGSSSGNTASLTITGAQAEDEADYYCGSYDRPETNSDYVGMFGSGTKVTVL
notes: monomeric Fab fragment
B2: 13112.15380 Fab (Fab, V domains shown)
VH: EVQLLESGGGLVQPGGSLRLSCAASGFTFSSYNMFWVRQAPGKGLEFVAEISGSNTGSRTWYAPAVKGRATISRDNSKNTLYLQMNSLRAEDTAVYYCAKSIYGGYCAGGYSCGVGLIDAWGQGTLVTVSS
VL: SYELTQDPAVSVALGQTVRITCSGGSSDYYGWFQQKPGQAPVTVIYYNNKRPSDIPDRFSGSSSGNTASLTITGAQAEDEADYYCGNADSSVGVFGSGTKVTVL
B3: 12865.17150 Fab (Fab, V domains shown)
VH: EVQLLESGGGLVQPGGSLRLSCAASGFDFSDHGMQWVRQAPGKGLEYVGVIDTTGRYTYYAPAVKGRATISRDNSKNTLYLQMNSLRAEDTAVYYCAKTTCVGGYLCNTVGSIDAWGQGTLVTVSS
VL: SYELTQDPAVSVALGQTVRITCSGGGSSSYYGWYQQKPGQAPVTVIYDDTNRPSGIPDRFSGSSSGNTASLTITGAQAEDEADYYCGGYEGSSHAGIFGSGTKVTVL
notes: monomeric Fab fragment

Legend:
Assay in all cases: SPR, Fab on captured PD-1-Fc;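 also: Alanine-scan PD-1 Fc fusions expressed transiently in ExpiCHO, captured on anti-human IgG Fc surface in IBIS MX96, anti-PD-1 Fab association 15 min, dissociation 30 min, Langmuir 1:1 fit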
human PD-1 ECD-Fc E61A = molecular target: T1, human PD-1 ECD-Fc E61A (human, UniProt Q15116 21-170)
T1 construct: not shown: human IgG1 Fc, residues P101-K330
T1 sequence (Q15116 21-170 E61A): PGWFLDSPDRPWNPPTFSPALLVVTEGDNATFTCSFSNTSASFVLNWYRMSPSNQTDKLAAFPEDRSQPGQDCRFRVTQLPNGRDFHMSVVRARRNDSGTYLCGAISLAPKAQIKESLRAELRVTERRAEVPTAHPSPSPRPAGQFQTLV

human PD-1 ECD-Fc Q91A = molecular target: T2, human PD-1 ECD-Fc Q91A (human, UniProt Q15116 21-170)
T2 construct: not shown: human IgG1 Fc, residues P101-K330
T2 sequence (Q15116 21-170 Q91A): as the sequence (Q15116 21-170 E61A) above, with A41E, Q71A counted along it

human PD-1 ECD-Fc S27A = molecular target: T3, human PD-1 ECD-Fc S27A (human, UniProt Q15116 21-170)
T3 construct: not shown: human IgG1 Fc, residues P101-K330
T3 sequence (Q15116 21-170 S27A): as the sequence (Q15116 21-170 E61A) above, with S7A, A41E counted along it

human PD-1 ECD-Fc A132G = molecular target: T4, human PD-1 ECD-Fc A132G (human, UniProt Q15116 21-170)
T4 construct: not shown: human IgG1 Fc, residues P101-K330
T4 sequence (Q15116 21-170 A132G): as the sequence (Q15116 21-170 E61A) above, with A41E, A112G counted along it

human PD-1 ECD-Fc C93A = molecular target: T5, human PD-1 ECD-Fc C93A (human, UniProt Q15116 21-170)
T5 construct: not shown: human IgG1 Fc, residues P101-K330
T5 sequence (Q15116 21-170 C93A): as the sequence (Q15116 21-170 E61A) above, with A41E, C73A counted along it

human PD-1 ECD-Fc G22A = molecular target: T6, human PD-1 ECD-Fc G22A (human, UniProt Q15116 21-170)
T6 construct: not shown: human IgG1 Fc, residues P101-K330
T6 sequence (Q15116 21-170 G22A): as the sequence (Q15116 21-170 E61A) above, with G2A, A41E counted along it

human PD-1 ECD-Fc S71A = molecular target: T7, human PD-1 ECD-Fc S71A (human, UniProt Q15116 21-170)
T7 construct: not shown: human IgG1 Fc, residues P101-K330
T7 sequence (Q15116 21-170 S71A): as the sequence (Q15116 21-170 E61A) above, with A41E, S51A counted along it

human PD-1 ECD-Fc D26A = molecular target: T8, human PD-1 ECD-Fc D26A (human, UniProt Q15116 21-170)
T8 construct: not shown: human IgG1 Fc, residues P101-K330
T8 sequence (Q15116 21-170 D26A): as the sequence (Q15116 21-170 E61A) above, with D6A, A41E counted along it

human PD-1 ECD-Fc P156A = molecular target: T9, human PD-1 ECD-Fc P156A (human, UniProt Q15116 21-170)
T9 construct: not shown: human IgG1 Fc, residues P101-K330
T9 sequence (Q15116 21-170 P156A): as the sequence (Q15116 21-170 E61A) above, with A41E, P136A counted along it

human PD-1 ECD-Fc H155A = molecular target: T10, human PD-1 ECD-Fc H155A (human, UniProt Q15116 21-170)
T10 construct: not shown: human IgG1 Fc, residues P101-K330
T10 sequence (Q15116 21-170 H155A): as the sequence (Q15116 21-170 E61A) above, with A41E, H135A counted along it

human PD-1 ECD-Fc G47A = molecular target: T11, human PD-1 ECD-Fc G47A (human, UniProt Q15116 21-170)
T11 construct: not shown: human IgG1 Fc, residues P101-K330

human PD-1 ECD-Fc G119A = molecular target: T12, human PD-1 ECD-Fc G119A (human, UniProt Q15116 21-170)
T12 construct: not shown: human IgG1 Fc, residues P101-K330
T12 sequence (Q15116 21-170 G119A): as the sequence (Q15116 21-170 E61A) above, with A41E, G99A counted along it

human PD-1 ECD-Fc L138A = molecular target: T13, human PD-1 ECD-Fc L138A (human, UniProt Q15116 21-170)
T13 construct: not shown: human IgG1 Fc, residues P101-K330

human PD-1 ECD-Fc L42A = molecular target: T14, human PD-1 ECD-Fc L42A (human, UniProt Q15116 21-170)
T14 construct: not shown: human IgG1 Fc, residues P101-K330
T14 sequence (Q15116 21-170 L42A): as the sequence (Q15116 21-170 E61A) above, with L22A, A41E counted along it

human PD-1 ECD-Fc P31A = molecular target: T15, human PD-1 ECD-Fc P31A (human, UniProt Q15116 21-170)
T15 construct: not shown: human IgG1 Fc, residues P101-K330
T15 sequence (Q15116 21-170 P31A): as the sequence (Q15116 21-170 E61A) above, with P11A, A41E counted along it

human PD-1 ECD-Fc Q88A = molecular target: T16, human PD-1 ECD-Fc Q88A (human, UniProt Q15116 21-170)
T16 construct: not shown: human IgG1 Fc, residues P101-K330
T16 sequence (Q15116 21-170 Q88A): as the sequence (Q15116 21-170 E61A) above, with A41E, Q68A counted along it

human PD-1 ECD-Fc G103A = molecular target: T17, human PD-1 ECD-Fc G103A (human, UniProt Q15116 21-170)
T17 construct: not shown: human IgG1 Fc, residues P101-K330

human PD-1 ECD-Fc P130A = molecular target: T18, human PD-1 ECD-Fc P130A (human, UniProt Q15116 21-170)
T18 construct: not shown: human IgG1 Fc, residues P101-K330
T18 sequence (Q15116 21-170 P130A): as the sequence (Q15116 21-170 E61A) above, with A41E, P110A counted along it

human PD-1 ECD-Fc N49A = molecular target: T19, human PD-1 ECD-Fc N49A (human, UniProt Q15116 21-170)
T19 construct: not shown: human IgG1 Fc, residues P101-K330
T19 sequence (Q15116 21-170 N49A): as the sequence (Q15116 21-170 E61A) above, with N29A, A41E counted along it

human PD-1 ECD-Fc Q167A = molecular target: T20, human PD-1 ECD-Fc Q167A (human, UniProt Q15116 21-170)
T20 construct: label printed under 'Rat mutation', values in r90; not shown: human IgG1 Fc, residues P101-K330
T20 sequence (Q15116 21-170 Q167A): as the sequence (Q15116 21-170 E61A) above, with A41E, Q147A counted along it

human PD-1 ECD-Fc N58A = molecular target: T21, human PD-1 ECD-Fc N58A (human, UniProt Q15116 21-170)
T21 construct: not shown: human IgG1 Fc, residues P101-K330

human PD-1 ECD-Fc T145A = molecular target: T22, human PD-1 ECD-Fc T145A (human, UniProt Q15116 21-170)
T22 construct: not shown: human IgG1 Fc, residues P101-K330

human PD-1 ECD-Fc E84A = molecular target: T23, human PD-1 ECD-Fc E84A (human, UniProt Q15116 21-170)
T23 construct: not shown: human IgG1 Fc, residues P101-K330

human PD-1 ECD-Fc Q75A = molecular target: T24, human PD-1 ECD-Fc Q75A (human, UniProt Q15116 21-170)
T24 construct: not shown: human IgG1 Fc, residues P101-K330
T24 sequence (Q15116 21-170 Q75A): as the sequence (Q15116 21-170 E61A) above, with A41E, Q55A counted along it

human PD-1 ECD-Fc N33A = molecular target: T25, human PD-1 ECD-Fc N33A (human, UniProt Q15116 21-170)
T25 construct: not shown: human IgG1 Fc, residues P101-K330

human PD-1 ECD-Fc S159A = molecular target: T26, human PD-1 ECD-Fc S159A (human, UniProt Q15116 21-170)
T26 construct: not shown: human IgG1 Fc, residues P101-K330
T26 sequence (Q15116 21-170 S159A): as the sequence (Q15116 21-170 E61A) above, with A41E, S139A counted along it

human PD-1 ECD-Fc K131A = molecular target: T27, human PD-1 ECD-Fc K131A (human, UniProt Q15116 21-170)
T27 construct: not shown: human IgG1 Fc, residues P101-K330
T27 sequence (Q15116 21-170 K131A): as the sequence (Q15116 21-170 E61A) above, with A41E, K111A counted along it

human PD-1 ECD-Fc V64K = molecular target: T28, human PD-1 ECD-Fc V64K (human, UniProt Q15116 21-170)
T28 construct: also called Rat mutation V64K; not shown: human IgG1 Fc, residues P101-K330

human PD-1 ECD-Fc P158A = molecular target: T29, human PD-1 ECD-Fc P158A (human, UniProt Q15116 21-170)
T29 construct: not shown: human IgG1 Fc, residues P101-K330
T29 sequence (Q15116 21-170 P158A): as the sequence (Q15116 21-170 E61A) above, with A41E, P138A counted along it

human PD-1 ECD-Fc N116A = molecular target: T30, human PD-1 ECD-Fc N116A (human, UniProt Q15116 21-170)
T30 construct: not shown: human IgG1 Fc, residues P101-K330
T30 sequence (Q15116 21-170 N116A): as the sequence (Q15116 21-170 E61A) above, with A41E, N96A counted along it

human PD-1 ECD-Fc P152A = molecular target: T31, human PD-1 ECD-Fc P152A (human, UniProt Q15116 21-170)
T31 construct: not shown: human IgG1 Fc, residues P101-K330
T31 sequence (Q15116 21-170 P152A): as the sequence (Q15116 21-170 E61A) above, with A41E, P132A counted along it

human PD-1 ECD-Fc D48A = molecular target: T32, human PD-1 ECD-Fc D48A (human, UniProt Q15116 21-170)
T32 construct: not shown: human IgG1 Fc, residues P101-K330
T32 sequence (Q15116 21-170 D48A): as the sequence (Q15116 21-170 E61A) above, with D28A, A41E counted along it

Row | Binder | KD mutant/KD wild-type (human PD-1 ECD-Fc E61A) | KD mutant/KD wild-type (human PD-1 ECD-Fc Q91A) | KD mutant/KD wild-type (human PD-1 ECD-Fc S27A) | KD mutant/KD wild-type (human PD-1 ECD-Fc A132G) | KD mutant/KD wild-type (human PD-1 ECD-Fc C93A) | KD mutant/KD wild-type (human PD-1 ECD-Fc G22A) | KD mutant/KD wild-type (human PD-1 ECD-Fc S71A) | KD mutant/KD wild-type (human PD-1 ECD-Fc D26A) | KD mutant/KD wild-type (human PD-1 ECD-Fc P156A) | KD mutant/KD wild-type (human PD-1 ECD-Fc H155A) | KD mutant/KD wild-type (human PD-1 ECD-Fc G47A) | KD mutant/KD wild-type (human PD-1 ECD-Fc G119A) | KD mutant/KD wild-type (human PD-1 ECD-Fc L138A) | KD mutant/KD wild-type (human PD-1 ECD-Fc L42A) | KD mutant/KD wild-type (human PD-1 ECD-Fc P31A) | KD mutant/KD wild-type (human PD-1 ECD-Fc Q88A) | KD mutant/KD wild-type (human PD-1 ECD-Fc G103A) | KD mutant/KD wild-type (human PD-1 ECD-Fc P130A) | KD mutant/KD wild-type (human PD-1 ECD-Fc N49A) | KD mutant/KD wild-type (human PD-1 ECD-Fc Q167A) | other results
1 | B1 | 1.2 ratio | 0.8 ratio | 0.8 ratio | 53.4 ratio | 1.2 ratio | 1 ratio | 0.9 ratio | 1.1 ratio | 1 ratio | 1.1 ratio | 1.6 ratio | 1 ratio | 1 ratio | 1.3 ratio | 1.1 ratio | 1.4 ratio | 1.1 ratio | 105 ratio | 1.1 ratio | 0.8 ratio | KD mutant/KD wild-type (human PD-1 ECD-Fc N58A): 1.3 ratio; KD mutant/KD wild-type (human PD-1 ECD-Fc T145A): 1.1 ratio; KD mutant/KD wild-type (human PD-1 ECD-Fc E84A): 1.3 ratio; KD mutant/KD wild-type (human PD-1 ECD-Fc Q75A): 1 ratio; KD mutant/KD wild-type (human PD-1 ECD-Fc N33A): 1 ratio; KD mutant/KD wild-type (human PD-1 ECD-Fc S159A): 1.1 ratio; binding result (human PD-1 ECD-Fc K131A): no binding (tested: 1 nM to 50 nM); KD mutant/KD wild-type (human PD-1 ECD-Fc V64K): 35.7 ratio; KD mutant/KD wild-type (human PD-1 ECD-Fc P158A): 1.2 ratio; KD mutant/KD wild-type (human PD-1 ECD-Fc N116A): 1.4 ratio; KD mutant/KD wild-type (human PD-1 ECD-Fc P152A): 1.4 ratio; KD mutant/KD wild-type (human PD-1 ECD-Fc D48A): 1 ratio
2 | B2 | 1 ratio | 1 ratio | 1.1 ratio | 1 ratio | 1.1 ratio | 1 ratio | 0.9 ratio | 1.2 ratio | 1.5 ratio | 1 ratio | 0.6 ratio | 1 ratio | 1.2 ratio | 2.2 ratio | 1.1 ratio | 0.9 ratio | 0.9 ratio | 0.9 ratio | 1 ratio | 0.9 ratio | KD mutant/KD wild-type (human PD-1 ECD-Fc N58A): 1 ratio; KD mutant/KD wild-type (human PD-1 ECD-Fc T145A): 82.4 ratio; KD mutant/KD wild-type (human PD-1 ECD-Fc E84A): 1 ratio; KD mutant/KD wild-type (human PD-1 ECD-Fc Q75A): 0.9 ratio; KD mutant/KD wild-type (human PD-1 ECD-Fc N33A): 1 ratio; KD mutant/KD wild-type (human PD-1 ECD-Fc S159A): 0.9 ratio; KD mutant/KD wild-type (human PD-1 ECD-Fc K131A): 0.9 ratio; KD mutant/KD wild-type (human PD-1 ECD-Fc V64K): 1 ratio; KD mutant/KD wild-type (human PD-1 ECD-Fc P158A): 1 ratio; KD mutant/KD wild-type (human PD-1 ECD-Fc N116A): 0.9 ratio; KD mutant/KD wild-type (human PD-1 ECD-Fc P152A): 1 ratio; KD mutant/KD wild-type (human PD-1 ECD-Fc D48A): 2.4 ratio
3 | B3 | 1.1 ratio | 1 ratio | 0.8 ratio | 1.4 ratio | 0.9 ratio | 0.9 ratio | 0.9 ratio | 0.8 ratio | 1.1 ratio | 1 ratio | 0.5 ratio | 0.4 ratio | 1.1 ratio | 0.5 ratio | 1 ratio | 1.4 ratio | 0.8 ratio | 0.5 ratio | 0.7 ratio | 1 ratio | KD mutant/KD wild-type (human PD-1 ECD-Fc N58A): 0.7 ratio; KD mutant/KD wild-type (human PD-1 ECD-Fc T145A): 0.7 ratio; KD mutant/KD wild-type (human PD-1 ECD-Fc E84A): 1 ratio; KD mutant/KD wild-type (human PD-1 ECD-Fc Q75A): 0.5 ratio; KD mutant/KD wild-type (human PD-1 ECD-Fc N33A): 1.1 ratio; KD mutant/KD wild-type (human PD-1 ECD-Fc S159A): 0.8 ratio; binding result (human PD-1 ECD-Fc K131A): no binding (tested: 1 nM to 50 nM); KD mutant/KD wild-type (human PD-1 ECD-Fc V64K): 1.3 ratio; KD mutant/KD wild-type (human PD-1 ECD-Fc P158A): 0.9 ratio; KD mutant/KD wild-type (human PD-1 ECD-Fc N116A): 0.8 ratio; KD mutant/KD wild-type (human PD-1 ECD-Fc P152A): 0.9 ratio; KD mutant/KD wild-type (human PD-1 ECD-Fc D48A): 0.6 ratio
